Reference: PMC3785249

Assays:
[1] = molecular target: human FcγRIIa^H131, extracellular region (UniProt P12318); experiment: binding screen of single-substitution variants (method not named in legend); settings: read off a plot
[2] = molecular target: human FcγRIIa^R131, extracellular region; experiment: as above; settings: read off a plot
[3] = molecular target: human FcγRIIb, extracellular region (UniProt P31994); experiment: as above; settings: read off a plot
[4] = molecular target: V12 variant of human IgG1 (human); experiment: SPR; KD for soluble hFcRn at pH 6.0; as described previously (Igawa et al., 2010)
[5] = molecular target: wild-type human IgG1 (human); experiment: as above
[6] = molecular target: S267E/L328F variant of human IgG1 (human); experiment: SPR; Biacore; antibody variants captured on a CM5 chip with immobilised antigen peptide or protein A/G, FcγR injected; kinetic analysis by global fitting with a 1:1 Langmuir model (KD)

Sequence of UniProt P12318 (P12318 34-217): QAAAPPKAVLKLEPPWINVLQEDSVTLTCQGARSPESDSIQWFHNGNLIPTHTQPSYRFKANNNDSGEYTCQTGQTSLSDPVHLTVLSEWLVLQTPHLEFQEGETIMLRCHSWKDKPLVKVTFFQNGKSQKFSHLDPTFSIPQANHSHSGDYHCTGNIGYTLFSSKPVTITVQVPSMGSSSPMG
Sequence of UniProt P31994 (P31994 43-217): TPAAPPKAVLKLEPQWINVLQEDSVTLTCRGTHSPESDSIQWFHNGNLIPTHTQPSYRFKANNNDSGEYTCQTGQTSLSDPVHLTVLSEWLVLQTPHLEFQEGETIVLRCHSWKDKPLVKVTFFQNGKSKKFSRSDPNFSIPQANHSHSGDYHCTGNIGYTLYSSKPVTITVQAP

Substance	percent of parent (template antibody = 100) [1]	percent of parent (template antibody = 100) [2]	percent of parent (template antibody = 100) [3]	Kd [4] [µM]	Kd [5] [µM]	fold increase in affinity over IgG1, KD (IgG1)/KD (Fc variant) [6] [fold]
wild-type human IgG1 L328F	53	190	300			
recombinant, soluble human FcRn (from UniProt P55899 24-297) (complex)				1.4	1.5	
wild-type human IgG1 P238D	2	12	210			
wild-type human IgG1 S267E	100	190	410			
wild-type human IgG1 L328E	15		180			
human FcγRIIa^R131, extracellular region (receptor)						864
